According to patent US20250326838A1 (CSPC MEGALITH BIOPHARMACEUTICAL, published 2025):
Numbering of substitutions follows the chain as printed.

T1: Siglec15-ECD-His (human, UniProt Q6ZMC9 20-263)
T1 construct: Human Siglec15 (Uniprot Q6ZMC9) extracellular domain with 7 His, expressed in Hek293F; also called Sigle15-ECD-His protein; Siglec15-His protein
T1 sequence: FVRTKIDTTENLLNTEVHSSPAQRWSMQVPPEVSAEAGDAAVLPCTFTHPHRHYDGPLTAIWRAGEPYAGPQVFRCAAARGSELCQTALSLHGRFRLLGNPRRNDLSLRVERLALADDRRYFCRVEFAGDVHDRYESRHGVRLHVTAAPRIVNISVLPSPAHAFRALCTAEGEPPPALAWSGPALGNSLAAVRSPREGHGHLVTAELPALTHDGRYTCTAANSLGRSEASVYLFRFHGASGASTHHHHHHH

T2: His-tagged cynomolgus monkey Siglec15 protein (cynomolgus monkey, UniProt A0A2K5UY47 20-262)
T2 construct: not shown: His tag
T2 sequence: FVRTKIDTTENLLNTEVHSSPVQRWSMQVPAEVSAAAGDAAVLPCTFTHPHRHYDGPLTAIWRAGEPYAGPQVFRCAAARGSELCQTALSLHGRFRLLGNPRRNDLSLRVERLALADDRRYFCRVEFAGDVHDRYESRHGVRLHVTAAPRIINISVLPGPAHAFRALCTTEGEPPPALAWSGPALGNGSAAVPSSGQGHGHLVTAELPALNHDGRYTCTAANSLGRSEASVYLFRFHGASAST

B1: 1-7F4-IgG1 human-mouse chimeric anti-Siglec15 antibody (antibody, V domains shown)
VH: EVQLQQSGPELVKPGASVKMSCKASGYTFTTYVMHWVKQKPGQGLEWIGYINPYNDKTKYNEKFKGKATLTSDKSSSTAYMEVSRLTSEDSAVYYCGSGYDAMDYWGQGTSVTVSS
VL: DIQMTQSPASLSVSVGETVTITCRASENIYSHLAWYQQKQGKSPQLLIYSATNLADGVPSRFNGSGSGTQYSLKINSLQSEDFGSYYCQHFWGTPWTFGGGTKLEIK
B2: 1-15D1-IgG1 human-mouse chimeric anti-Siglec15 antibody (antibody, V domains shown)
VH: B1 VH with K57N, V83L, R85S
VL: B1 VL with T5A, A25T, I48V
B3: 1-10E5-IgG1 human-mouse chimeric anti-Siglec15 antibody (antibody, V domains shown)
VH: DVKLVESGGGLVKPGGSLKLSCVVSGLTFSRYTMSWVRQTPEKRLEWVATISSGGNSTYYPDSVKGRFTISRDDAKDTLYLQMSSLKSEDTAMYYCTNYGYFFDYWGQGTTLTVSS
VL: DIQMTQSPASLSASVGETVTITCRASENIYSFLAWYQQKQGKSPQLLVYNAKTLAEGVPSRFSGSGSGTQFSLKINSLQPEDFGSYYCQHHYDRPLTFGAGTKLELK
B4: 5G12-IgG1 control antibody (antibody, V domains shown)
VH: QVQLQQPGAELVKPGASVKMSCKASGYTFTSYWITWVIQRPGQGLEWIGDIYCGSDTMHYNEKFKNKATLTVDTSSSTAYMQLSSLTSEDSAVYYCARWWDYGSSYDYFDYWGQGTTLTVSS
VL: DIKMTQSPSSMYASLGERVTITCKASQDINSYLSWFQQKPGKSPKTLIYRANRLVDGVPSRFSGSGSGQDYSLTISSLEYEDMGIYYCLQYDEFPYTFGGGTKLEIKR
B5: 1-7F4 monoclonal antibody (antibody, V domains shown)
VH: B1 VH
VL: B1 VL
B6: 1-15D1 monoclonal antibody (antibody, V domains shown)
VH: B1 VH with K57N, V83L, R85S
VL: B1 VL with T5A, A25T, I48V
B7: 1-10E5 monoclonal antibody (antibody, V domains shown)
VH: B3 VH
VL: B3 VL
B8: 14A7 monoclonal antibody (antibody, V domains shown)
VH: DVQLQESGPGLVKPSQSLSLTCTVTGYSITSDFAWNWIRQFPGNKLEWMGYIRFSGSTTYKPTLKSRISITRDTSKNQFFLQLNSVTTEDSATYYCAREDYDGLFDYWGQGTTLTVTS
VL: DVLMTQTPLSLPVSLGDHASISCRSSQTILHSNGNTYLDWYLQKPGQSPKLLIYKVSNRFSGVPDRFSGSGSGTDFTLKISRVEAEDLGVYYCFQGSHVPYTFGGGTKLEIK

molecular target: T1, Siglec15-ECD-His; test: BLI (ForteBio), Siglec15-ECD-His on HIS1K sensor, antibody as analyte
Experimental: In this experiment, a HIS1K biosensor was used to bind the ligand (Sigle15-ECD-His protein) followed by the analyte. Human Sigle15-ECD-His protein was diluted to 5 μg/ml and immobilized on the biosensor to a binding response threshold of 0.3 nm. After the 120s baseline step, the sensors were respectively immersed in the analytes of anti-Siglec15 antibodies 1-7F4-IgG1, 1-15D1-IgG1 and 1-10E5-IgG1 diluted in 2-fold gradient dilution with 0.02% PBST buffer, and the initial antibody concentration was 100 nM, 7 concentration gradients were set respectively. Human IgG1 (hIgG1) (B109801, Baiying Biotechnology Co., Ltd.) was used as a reference control, and 5G12-IgG1 was used as a positive control to conduct an affinity analysis experiment. The binding time of ligand and analyte was 120s, and the dissociation time was 300s. The raw data were imported into the analysis software, the zero concentration control was subtracted, and the reference channel was subtracted to eliminate the volume effect. The affinity data of the antigen and antibody were calculated by the analysis software regression according to the binding curve.

First: B1
Second: B2
The Kd of the first is higher: 0.06 nM for the first, < 0.001 nM for the second.

Compared with B3, B4 is higher in Kd: < 0.001 nM for the first, 0.261 nM for the second.

First: B1
Second: B2
The koff of the first is higher: 3.42e-05 s⁻¹ for the first, < 1e-07 s⁻¹ for the second.

Going from B3 to B4, the koff rises from < 1e-07 s⁻¹ to 0.000178 s⁻¹.

In order of falling kon:
1. B3  1.04e+06 M⁻¹ s⁻¹
2. B4  683000 M⁻¹ s⁻¹
3. B1  570000 M⁻¹ s⁻¹
4. B2  436000 M⁻¹ s⁻¹

molecular target: T2, His-tagged cynomolgus monkey Siglec15 …; test: ELISA, His-tagged cynomolgus monkey Siglec15 coated
Experimental: (§1) In order to evaluate the cross-species recognition properties of antibodies, the cross recognition of purified 1-15D1, 1-7F4, 14A7 and 1-10E5 monoclonal antibodies with human, cynomolgus monkey and mouse Siglec15 was tested. ELISA test was carried out by coating the microtiter plate with His-tagged human, cynomolgus monkey and mouse Siglec15 proteins and adding 1-15D1, 1-7F4, 14A7 and 1-10E5 antibodies at concentrations of 5000 ng/ml, 1666.7 ng/ml, 555.6 ng/ml, 185.2 ng/ml, 61.7 ng/ml, 20.6 ng/ml, 6.9 ng/ml, 2.3 ng/ml, 0.8 ng/ml, 0.25 ng/ml and 0.1 ng/ml respectively. […] The 14A7 and 1-10E5 antibodies could not only bind human and monkey Siglec15 proteins, but also bind mouse Siglec 15 proteins (FIG. 5). See Table 1 and FIG. 3-FIG. 5 for the EC₅₀ values of affinities for various Siglec15.

In order of falling EC50:
1. B5  14.8 ng/mL
2. B7  9.49 ng/mL
3. B6  9.07 ng/mL
4. B8  8.51 ng/mL

molecular target: T1, Siglec15-ECD-His; test: ELISA, His-tagged human Siglec15 coated
Experimental: as §1

In order of falling EC50:
1. B5  10 ng/mL
2. B8  8.97 ng/mL
3. B7  7.21 ng/mL
4. B6  4.98 ng/mL

molecular target: T3, Siglec15-ECD-Fc (human); test: flow cytometry, single-point blocking by hybridoma supernatant of Siglec15-ECD-Fc (2 ug/ml) binding to LRRC4C-Hek293 cells
T3 construct: Human Siglec15 extracellular domain fused to human IgG1 Fc, expressed in Hek293F; also called Siglec15-ECD-Fc fusion protein
Excerpt: When the hybridoma cells grew to a certain amount, the Siglec15-His protein was coated onto a 96-well microtiter plate, and the mouse anti-Siglec15 serum was used as a positive control, and the hybridoma supernatant was screened by ELISA to select positive clones. […] The experimental results were shown in FIG. 2, and the specific method was as follows. The inventors conducted subclonal screening of these 10 strains of cells by the limiting dilution method, and finally kept the obtained monoclonal positive cell strains separately, and the supernatant of hybridoma cells was collected for purification by ProteinG.
By using the Lipofectamine system, the human LRRC4C (amino acid sequence set forth in SEQ ID NO: 5) plasmid was transfected into Hek293 cells. After 48 hours, G418 (800 μg/mL) was added to screen for 10-14 days to obtain a cell line stably expressing LRRC4C. Cells were collected, washed once with PBS buffer, blocked with PBS containing 2% FBS for 1 h at room temperature. The hybridoma cell supernatant was added in 50 μl/well; then the diluted Siglec 15-ECD-Fc protein (2 ug/ml) was added in 50 μl/well; mouse IgG was used as a negative control. The cells were incubated at 4° C. for 50 min, then washed three times with PBS buffer containing 0.2% FBS, then diluted with Alexa Fluor 488-labeled goat anti-human IgG in PBS containing 2% FBS, and incubated at 4° C. in the dark for 50 min, and washed three times with PBS buffer containing 0.2% FBS; finally, the cells were resuspended in 200 μL PBS and analyzed by flow cytometry. The average fluorescence reading of 10,000 cells for each sample was recorded, wherein the FITC fluorescence intensity was taken as the abscissa and the cell number as the ordinate, and the voltage parameters were adjusted so that the blank control was at the origin of the coordinate axis. The percentage result of hybridoma cell supernatant for blocking the binding of Siglec15-ECD-Fc protein to LRRC4C was calculated.

B5: binds.
B6: binds.
B7: binds.
B8: binds.

molecular target: His-tagged mouse Siglec15 protein (mouse); test: ELISA, His-tagged mouse Siglec15 coated
Experimental: as §1

In order of rising EC50:
1. B7  9.61 ng/mL
2. B8  9.99 ng/mL
